Results on six variants are retold here after paper PMC10023680 (2023).

To fix the notation:
B1: GST-tagged ELMO1-RBD (residues 1-113), wild-type [human] / RhoG (residues 1-184) [human] (parent complex)
chain 1: MPPPADIVKVAIEWPGAYPKLMEIDQKKPLSAIIKEVCDGWSLANHEYFALQHADSSNFYITEKNRNEIKNGTILRLTTSPAQNAQQLHERIQSSSMDAKLEALKDLASLSRD
chain 2: not shown

Variants of B1 are the subject of one assay. Nature of the assay: SPR; RhoG in the active GTPγS-bound form; n = 3 independent experiments. A general note: In SPR one partner is held on a chip, and binding of the other changes the refractive index at the surface.
The Kd is the free concentration of one partner at which half of the binding sites on the other are occupied at equilibrium, for simple one-to-one binding. Regarding chain 1 L21A, the Kd was 163 µM.
Same read-out and setting: under chain 1 N58A stands 10 µM; under chain 1 E13A, 44.3 µM.

Variants of B1 are the subject of another assay. Nature of the assay: SPR; read at the highest RhoG concentration, about 35 µM; RhoG in the active GTPγS-bound form; read off a plot.
Turning to chain 1 L21A, the response was about 18%.
The same measure, in the same setting: then chain 1 N58A, with about 78%.
On the same count and under the same terms, under chain 1 K9A stands about 0%.
Regarding chain 1 E13A, the response is about 46%.
The same measure, in the same setting: under chain 1 K20E stands about 64%.
The same measure, in the same setting: then chain 1 Y18A, with about 59%.
